Km and kcat data for 1 protein are collected here from paper PMC5148593, “Using the Amino Acid Network to Modulate the Hydrolytic Activity of β-Glycosidases” (PLoS ONE, 2016).

Substrate in this data set: O=[N+]([O-])c1ccc(O[C@@H]2O[C@H](CO)[C@@H](O)[C@H](O)[C@H]2O)cc1
The data set is described as follows: purified protein. In kind it is biochemical, Spodoptera frugiperda. The following applies: 100 mM sodium citrate-sodium phosphate pH 6.0, 30°C.

B1: Sfβgly (Spodoptera frugiperda) (protein)
chain: QQRRFPDDFLFGTATASYQIEGAWDEDGKGENIWDYMVHNTPEVIRDLSNGDIAADSYHNYKRDVEMMRELGLDAYRFSLSWARILPTGMANEVNPAGIAFYNNYIDEMLKYNITPLITLYHWDLPQKLQELGGFANPLISDWFEDYARVVFENFGDRVKMFITFNEPREICFEGYGSATKAPILNATAMGAYLCAKNLVTAHAKAYYLYDREFRPVQGGQCGITISVNWFGPATPTPEDEMAAELRRQGEWGIYAHPIFSAEGGFPKELSDKIAEKSAQQGYPWSRLPEFTEEEKAFVRGTSDLIGVNHYTAFLVSATERKGPYPVPSLLDDVDTGSWADDSWLKSASAWLTLAPNSIHTALTHLNNLYNKPVFYITENGWSTDESRENSLIDDDRIQYYRASMESLLNCLDDGINLKGYMAWSLMDNFEWMEGYIERFGLYEVDFSDPARTRTPRKAAFVYKHIIKHRVVDYEYEPETMVMTIDEGH
notes: kinetics: gene in pAE plasmid, E. coli NovaBlue (DE3), Ni-NTA purified (His tag kept); mature protein 21-509 (borders printed for the P. pastoris pPIC9 crystal construct, 5CG0, glycosylated at N206); monomer-dimer equilibrium
Take B1: the Km is recorded as 2.3 mM and the kcat turned out to be 0.61 s⁻¹.
